Data reported in article PMC4721540, “Selective activators of protein phosphatase 5 target the auto-inhibitory mechanism” (Bioscience Reports, 2015).

B1: PPH-5 (protein phosphatase homologue), PP5 from nematode origin (enzyme, C. elegans, UniProt Q9NES8 1-496, looked up)
chain: MAATITDDIVATVLESIEEKSYEDEKEKAGMIKDEANQFFKDQVYDVAADLYSVAIEIHPTAVLYGNRAQAYLKKELYGSALEDADNAIAIDPSYVKGFYRRATANMALGRFKKALTDYQAVVKVCPNDKDARAKFDECSKIVRRQKFEAAISTDHDKKTVAETLDINAMAIEDSYDGPRLEDKITKEFVLQLIKTFKNQQKLHKKYAFKMLLEFYNYVKSLPTMVEITVPTGKKFTICGDVHGQFYDLCNIFEINGYPSETNPYLFNGDFVDRGSFSVETIFTMIGFKLLYPNHFFMSRGNHESDVMNKMYGFEGEVKAKYTQQMCDMFTETFCWLPLCHLINEKIFVCHGGLFKEDGVTLEDIRKTDRNRQPPDEGIMCDLLWSDPQPINGRSPSKRGVGCQFGPDVTSKWCETNGIEYVVRSHEVKPEGYEMHHNGQCFTVFSAPNYCDQMNNKGAFITITGDNLTPRFTPFDAVPHPKLPPMAYANSLFGFN
notes: PPH-5, the protein phosphatase 5 homologue of C. elegans; also called nematode PPH-5; PPH-5 (C. elegans); source: cloning and purification as described before [32-35]

Legend:
[1] = biological target: B1; experiment: AUC; sedimentation velocity with fluorescence detection; 300 nM labelled YFP–Hsp90, 3 μM PPH-5; 40 mM HEPES/KOH, pH 7.5, 20 mM KCl, 1 mM DTT; 20°C, 142000 g, 12 h; P5SAs at maximal soluble concentrations or 60 μM C-terminal Hsp90/DAF-21 peptide added where indicated; conditions: both partners purified
[2] = biological target: T1, YFP-CeHsp90/DAF-21 (C. elegans, UniProt Q18688 1-702); experiment: as above; conditions: both partners purified
T1 construct: Hsp90 of C. elegans (CeHsp90/DAF-21); Detected in the AUC by YFP fluorescence; also called YFP–Hsp90; YFP-tagged Hsp90; source: cloning and purification as described before [32-35]

binding result [1]	binding result [2]	Binder
binds	–	AEEDASRMEEVD (C-terminal peptide of Hsp90/DAF-21 of C. elegans; also called MEEVD peptide; MEEVD-containing peptide; source: bought: Biomatik) [C-terminal Hsp90/DAF-21 peptide (AEEDASRMEEVD)]
–	binds	B1
